Source: patent US20240117038A1 (Ablynx, published 2024)
Positions count from the first letter of the chain named. Names and notes keep the numbering of the source.

T1: human CX3CR1 V249I/T280M (human, UniProt P49238 1-355)
T1 construct: Transiently transfected in HEK293T cells (pcDNA3.1); also called huCX3CR1 variant V249I and T280M
T1 chain: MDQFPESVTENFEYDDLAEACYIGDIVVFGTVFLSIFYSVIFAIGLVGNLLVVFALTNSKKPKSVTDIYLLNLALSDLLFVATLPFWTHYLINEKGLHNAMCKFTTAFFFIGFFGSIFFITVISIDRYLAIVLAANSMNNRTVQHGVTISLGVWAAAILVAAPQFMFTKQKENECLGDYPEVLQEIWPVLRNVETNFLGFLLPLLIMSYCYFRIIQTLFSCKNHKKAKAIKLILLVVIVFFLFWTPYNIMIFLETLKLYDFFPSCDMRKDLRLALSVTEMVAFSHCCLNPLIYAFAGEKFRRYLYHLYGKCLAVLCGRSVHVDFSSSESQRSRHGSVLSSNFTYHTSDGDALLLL

T2: human CX3CR1 (human, UniProt P49238 1-355)
T2 construct: Overexpressed on CHO K1, Ba/F3 or HEK293T cells; also called huCX3CR1; hCX3CR1
T2 sequence: T1 chain with I249V, M280T

B1: A041600035 (VHH)
chain: DVQLVESGGGSVQPGGSLRLSCAASGSIFSSTAMAWYRQAPGKQRDLVAVISTVGITKYADSVKGRFTISRDNAKNTVYLQMNSLRPEDTALYYCTSDARRGWDTRYWGQGTLVTVSSGGGGSGGGSEVQLVESGGGSVQPGGSLRLSCAASGSIFSSTAMAWYRQAPGKQRDLVAVISTVGITKYADSVKGRFTISRDNAKNTVYLQMNSLRPEDTALYYCTSDARRGWDTRYWGQGTLVTVSSGGGGSGGGSEVQLVESGGGVVQPGGSLRLSCAASGFTFRSFGMSWVRQAPGKGPEWVSSISGSGSDTLYADSVKGRFTISRDNSKNTLYLQMNSLRPEDTALYYCTIGGSLSRSSQGTLVTVSSA
notes: Trivalent ISVD construct (two anti-CX3CR1 ISVDs, one anti-albumin ISVD), C-terminal alanine included in the entry; also called 54A12_SO (E1D)-9GS-54A12_SO-9GS-ALB23002-A
B2: A041600041 (VHH)
chain: B1 chain with Q171R, V177A, S179N, I183V, A226P
notes: Trivalent ISVD construct (two anti-CX3CR1 ISVDs, one anti-albumin ISVD), C-terminal alanine included in the entry; also called 54A12_SO (E1D)-9GS-66B02_SO-9GS-ALB23002-A
B3: A041600025 (VHH)
chain: DVQLVESGGGSVQPGGSLRLSCAASGSIFSSTAMAWYRQAPGKQRDLVAVISTVGITKYADSVKGRFTISRDNAKNTVYLQMNSLRPEDTALYYCTSDARRGWDTRYWGQGTLVTVSSGGGGSGGGSEVQLVESGGGVVQPGGSLRLSCAASGFTFRSFGMSWVRQAPGKGPEWVSSISGSGSDTLYADSVKGRFTISRDNSKNTLYLQMNSLRPEDTALYYCTIGGSLSRSSQGTLVTVSSGGGGSGGGSEVQLVESGGGSVQPGGSLRLSCAASGSIFSSTAMAWYRQAPGKQRDLVAVISTVGITKYADSVKGRFTISRDNAKNTVYLQMNSLRPEDTALYYCTSDARRGWDTRYWGQGTLVTVSSA
notes: Trivalent ISVD construct (two anti-CX3CR1 ISVDs, one anti-albumin ISVD), C-terminal alanine included in the entry; also called 54A12_SO (E1D)-9GS-ALB23002-9GS-54A12_SO-A
B4: A041600034 (VHH)
chain: B3 chain with Q295R, V301A, S303N, I307V, A350P
notes: Trivalent ISVD construct; also called 54A12_SO (E1D)-9GS-ALB23002-9GS-66B02_SO-A
B5: A041600085 (VHH)
chain: DVQLVESGGGLVQPGGSLRLSCAASGSIFSSTAMAWYRQAPGKRRDLVAAISTVGVTKYADSVKGRFTISRDNSKNTVYLQMNSLRPEDTAVYYCTSDPRRGWDTRYWGQGTLVTVSSGGGGSGGGSEVQLVESGGGVVQPGGSLRLSCAASGFTFRSFGMSWVRQAPGKGPEWVSSISGSGSDTLYADSVKGRFTISRDNSKNTLYLQMNSLRPEDTALYYCTIGGSLSRSSQGTLVTVSSGGGGSGGGSEVQLVESGGGLVQPGGSLRLSCAASGSIFSSTAMAWYRQAPGKRRDLVAAISTVGVTKYADSVKGRFTISRDNSKNTVYLQMNSLRPEDTAVYYCTSDPRRGWDTRYWGQGTLVTVSSA
notes: also called 307-9GS-ALB23002-9GS-307 (D1E)-A

target: T3, human CCR5 (human, UniProt P51681 1-352); experiment: flow cytometry on CHO-K1 cells expressing human CCR5
T3 construct: whole, on cells; also called huCCR5
T3 sequence (P51681 whole entry): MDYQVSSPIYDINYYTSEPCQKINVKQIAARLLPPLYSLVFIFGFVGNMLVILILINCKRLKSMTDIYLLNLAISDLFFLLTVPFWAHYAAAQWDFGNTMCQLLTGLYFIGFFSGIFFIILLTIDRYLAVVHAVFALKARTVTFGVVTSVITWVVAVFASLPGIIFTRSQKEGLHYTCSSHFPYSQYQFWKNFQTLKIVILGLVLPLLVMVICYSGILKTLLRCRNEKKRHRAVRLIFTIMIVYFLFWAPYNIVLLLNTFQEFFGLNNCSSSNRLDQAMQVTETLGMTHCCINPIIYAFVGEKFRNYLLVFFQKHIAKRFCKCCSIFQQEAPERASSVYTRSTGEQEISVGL
Method: (§1) CHO cells overexpressing human or cynomolgus CX3CR1 were generated using techniques known in the art. Cells were harvested and resuspended in assay buffer (PBS, 2% FBS, 0.05% NaN3) and seeded separately in 384-well Bio-One V-bottom plates (Greiner, Cat. No. 781280), with a total of 2E04 cells seeded per well. After washing, serial dilutions of multivalent ISVD construct (starting from 250 nM, 3-fold dilution, 11 points, diluted in assay buffer), were added and incubated for 4 hours at 4° C. Binding was performed in the presence of 30 uM HSA (Sigma-Aldrich, Cat. No. A8763). Plates were then washed 3 times and cells were incubated with an anti-VHH mouse antibody (3300-fold diluted in assay buffer) for 30 minutes at 4′° C. […] Plates were finally washed 3 times and cells were resuspended in PI (Miltenyi Biotec, Cat. No. 130-093-233, 1000-fold diluted in assay buffer). Cell suspensions were analyzed with iQue Screener PLUS (Intellicyt). EC50s were estimated by dose response modelling. Curves were fit using 4 parameter logistic regression in GraphPad (GraphPad Software Inc.). A purified anti-human CX3CR1 antibody [K0124E1] (BioLegend, Cat. No. 355701/355702) was used as positive control to detect CX3CR1 expression on the cell surface.
Specificity of the 5 selected multivalent ISVD constructs for the huCX3CR1 receptor was evaluated by performing a FACS binding experiment on CHO-K1 cells expressing human CCR2 or human CCR5. CHO cells overexpressing huCCR2 or huCCR5 were generated using techniques known in the art. Binding of the multivalent ISVD constructs to huCR2 or huCCR5 expressed on the cell surfaces was examined by flow cytometry as described in example 5.1.

| binding result | Binder |
| --- | --- |
| no binding | B1 |
| no binding | B2 |
| no binding | B3 |
| no binding | B4 |
| no binding | B5 |

Target: T1, human CX3CR1 V249I/T280M
Experiment: flow cytometry on transiently transfected HEK293T cells, human CX3CR1 V249I/T280M
Method: as §1, with “After” for “CHO cells overexpressing human or cynomolgus CX3CR1 were generated using techniques known in the art. Cells were harvested and resuspended in assay buffer (PBS, 2% FBS, 0.05% NaN3) and seeded separately in 384-well Bio-One V-bottom plates (Greiner, Cat. No. 781280), with a total of 2E04 cells seeded per well. After”
Two important SNPs are described in huCX3CR1, i.e. V2491 (Rs3732379) and T280M (Rs3732378), which might influence receptor activity and binding by the ISVD. […] Different combinations of these SNPs were introduced in human CX3CR1, and binding by 5 selected multivalent ISVD constructs was assessed with flow cytometry after transient transfection of the huCX3CR1 variants in HEK293T cells.
In short, the CX3CR1 constructs were cloned into pcDNA3.1 (ThermoFisher Scientific, Cat. No. V79020) and plasmid DNA was prepared from Escherichia coli TOP10 cells. HEK293T cells were seeded at a concentration of 1.5E06 cells per T75 flask and incubated overnight at 37° C. in DMEM medium (Gibco, Cat. No. 31966) supplemented with 10% FBS (Sigma. Cat. No. F7524). The medium was then replaced by Opti-MEM medium (Gibco, Cat. No. 31985). A mixture of 9 μg plasmid DNA, 27 μL Fugene 6 (Promega, Cat. No. E2691) in a final volume of 1 mL Opti-MEM was incubated for 15 minutes at room temperature and then added to the cells. After 3 hours incubation at 37° C., 10 mL of DMEM supplemented with 20% FBS was added, and incubation continued.

| EC50 [nM] | Binder |
| --- | --- |
| 0.27 | B1 |
| 0.17 | B3 |
| 0.09 | B4 |

target: T2, human CX3CR1; experiment: competition flow cytometry vs soluble huCX3CL1-AF647 on CHO K1 huCX3CR1 cells, 30 uM HSA

| % inhibition [%] | IC50 [nM] | Binder |
| --- | --- | --- |
| 99 | 2.5 | B1 |
| 97 | 2.7 | B2 |
| 98 | 3.8 | B3 |
| 95 | 4.5 | B4 |
| 103 | 7.7 | B5 |
